± gives the standard error. Variants at the floor of the assay were thinned out.
B1: glmS ribozyme (parent)
chain: AUAAAAGCGCCAGAACUACAGAAAUGUAGUUGACGAGGAGGAGGUUUAUCGAAUUUUCGGCGGAUGCCUCCAAA

Key:
Details in all cases: with glucosamine-6-phosphate
glucosamine-6-phosphate [1] = variants of: B1; test: self-cleavage kobs at 40 uM GlcN6P; higher = faster cleavage; RNA array
How it was run: (§1)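 In situ transcription by E. coli RNA polymerase produced barcoded ribozyme variants on sequenced MiSeq chips, and a hybridised Cy3 probe tracked them at 37 °C. Glucosamine-6-phosphate was flowed in at 40 μM to 10 mM in HEPES/KCl/Mg(OAc)2 buffer. kcat and KM were taken from weighted Michaelis–Menten fits of kobs values from exponential decay fits.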

glucosamine-6-phosphate [2] = variants of: B1; test: self-cleavage kobs at 160 uM GlcN6P; higher = faster cleavage; RNA array
How it was run: as §1

glucosamine-6-phosphate [3] = variants of: B1; test: self-cleavage kobs at 640 uM GlcN6P; higher = faster cleavage; RNA array
How it was run: as §1

glucosamine-6-phosphate [4] = variants of: B1; test: self-cleavage kobs at 10000 uM GlcN6P; higher = faster cleavage; RNA array
How it was run: as §1

glucosamine-6-phosphate [5] = variants of: B1; test: self-cleavage kobs at 2500 uM GlcN6P; higher = faster cleavage; RNA array
How it was run: as §1

| Variant | self-cleavage kobs at 40 uM GlcN6P (glucosamine-6-phosphate [1]) | self-cleavage kobs at 160 uM GlcN6P (glucosamine-6-phosphate [2]) | self-cleavage kobs at 640 uM GlcN6P (glucosamine-6-phosphate [3]) | self-cleavage kobs at 10000 uM GlcN6P (glucosamine-6-phosphate [4]) | self-cleavage kobs at 2500 uM GlcN6P (glucosamine-6-phosphate [5]) |
| --- | --- | --- | --- | --- | --- |
| AUAAAAGCGCCAGAACUACAGAAAUGUAGUUGACGAGGAGGAGGUUUCUCGAAUUUUUGGCGGAUGCCUCCAAA | < 1e-05 s⁻¹ | < 1e-05 s⁻¹ | < 1e-05 s⁻¹ | < 1e-05 s⁻¹ | – |
| AUAAAAGCGCCAGAACUACAGAAAUGUAGUUGACGAGGAGGAGGUUCAUCGAAUUUUCGUCGGAUGCCUCCAAA | < 1e-05 s⁻¹ | < 1e-05 s⁻¹ | < 1e-05 s⁻¹ | – | < 1e-05 s⁻¹ |
| AUAAAAGCGCCAGAACUACAGAAAUGUAGUUGACGAGGAGGAGGUUAAUCGACUUUUCGGCGGAUGCCUCCAAA | 0.000173 ± 2.9e-05 s⁻¹ | 0.000506 ± 7.8e-05 s⁻¹ | 0.00103 ± 0.00018 s⁻¹ | 0.00663 ± 0.0016 s⁻¹ | 0.00465 ± 0.001 s⁻¹ |
| AUAAAAGCGCCAGAACUACAGAAAUGUAGUUGACGAGGAGGAGGUUAAUCGAGUUUUCGGCGGAUGCCUCCAAA | 0.000816 ± 9.9e-05 s⁻¹ | 0.00166 ± 0.0003 s⁻¹ | 0.00725 ± 0.0013 s⁻¹ | 0.04 ± 0.011 s⁻¹ | 0.0106 ± 0.0028 s⁻¹ |
| AUAAAAGCGCCAGAACUACAGAAAUGUAGUUGACGAGGAGGAGGUUAAUCGAAUUUUCGGCGGAUGCCUUCAAA | 0.000803 ± 0.00012 s⁻¹ | 0.00118 ± 0.00023 s⁻¹ | 0.0018 ± 0.00029 s⁻¹ | 0.00993 ± 0.0023 s⁻¹ | 0.00221 ± 0.00048 s⁻¹ |
| AUAAAAGCGCCAGAACUACAGAAAUGUAGUUGACGAGGAGGAGGUUAAUCGAAUUUGUGGCGGAUGCCUUCAAA | < 1e-05 s⁻¹ | – | – | – | – |
| AUAAAAGCGCCAGAACUACAGAAAUGUAGUUGACGAGGAGGAGGUUGAUCGAAUUUUCGGCGGAUACCUUCAAA | 0.000121 ± 3e-05 s⁻¹ | – | – | 0.00591 ± 0.0017 s⁻¹ | – |
| AUAAAAGCGCCAGAACUACAGAAAUGUAGUUGACGAGGAGGAGGUUUCUCGUAUUUUCGGCGGAUGCCUACAAA | < 1e-05 s⁻¹ | – | – | – | – |
| AUAAAAGCGCCAGAACUACAGAAAUGUAGUUGACGAGGAGGAGGUUUCUCGAAUUUUCGGCGGAUGUCUCAAAA | < 1e-05 s⁻¹ | – | – | < 1e-05 s⁻¹ | – |
| AUAAAAGCGCCAGAACUACAGAAAUGUAGUUGACGAGGAGGAGGUUGAUCGAAUUUUCGGCGGAUGCCUCUAAA | 0.000224 ± 2.2e-05 s⁻¹ | 0.000648 ± 8.2e-05 s⁻¹ | 0.001 ± 0.00012 s⁻¹ | 0.00702 ± 0.00088 s⁻¹ | 0.00216 ± 0.00038 s⁻¹ |
| AUAAAAGCGCCAGAACUACAGAAAUGUAGUUGACGAGGAGGAGGUUUCUCGAAUUUUCGUCGGAUGCCUCCAAA | < 1e-05 s⁻¹ | < 1e-05 s⁻¹ | < 1e-05 s⁻¹ | < 1e-05 s⁻¹ | < 1e-05 s⁻¹ |
| AUAAAAGCGCCAGAACUACAGAAAUGUAGUUGACGAGGAGGAGGUUGAUCGAAUUUUCGUCGGAUGCCUCCAAA | < 1e-05 s⁻¹ | < 1e-05 s⁻¹ | – | – | < 1e-05 s⁻¹ |
| AUAAAAGCGCCAGAACUACAGAAAUGUAGUUGACGAGGAGGAGGUUCAUCGAAUUUUCGGUGGAUGCCUCCAAA | < 1e-05 s⁻¹ | < 1e-05 s⁻¹ | < 1e-05 s⁻¹ | < 1e-05 s⁻¹ | < 1e-05 s⁻¹ |
| AUAAAAGCGCCAGAACUACAGAAAUGUAGUUGACGAGGAGGAGGUUUCUCGAAUUUUCGGCGGAUGCCGCCAAA | < 1e-05 s⁻¹ | < 1e-05 s⁻¹ | – | < 1e-05 s⁻¹ | – |
| AUAAAAGCGCCAGAACUACAGAAAUGUAGUUGACGAGGAGGAGGUUUCUCUAAUUUUGGGCGGAUGCCUCCAAA | < 1e-05 s⁻¹ | – | – | – | – |
| AUAAAAGCGCCAGAACUACAGAAAUGUAGUUGACGAGGAGGAGGUUUCUCGAAUUUUCGGAGGAUGCCUCCAAA | < 1e-05 s⁻¹ | – | < 1e-05 s⁻¹ | < 1e-05 s⁻¹ | – |
| AUAAAAGCGCCAGAACUACAGAAAUGUAGUUGACGAGGAGGAGGUUGAUCGAAUUUUUGGCGGAUGCCUACAAA | 7.14e-05 ± 3e-05 s⁻¹ | – | – | 4.44e-05 ± 2.1e-05 s⁻¹ | 9.31e-05 ± 2e-05 s⁻¹ |
| AUAAAAGCGCCAGAACUACAGAAAUGUAGUUGACGAGGAGGAGGUUUCUCGAAUUUUCGGCGGAUCCCUCCAAA | < 1e-05 s⁻¹ | < 1e-05 s⁻¹ | – | 3.05e-05 ± 1.2e-05 s⁻¹ | – |
| AUAAAAGCGCCAGAACUACAGAAAUGUAGUUGACGAGGAGGAGGUUAAUCGAAUUUUCGACGGAUGCCUCCAAA | < 1e-05 s⁻¹ | < 1e-05 s⁻¹ | – | – | < 1e-05 s⁻¹ |
| AUAAAAGCGCCAGAACUACAGAAAUGUAGUUGACGAGGAGGAGGUUGAUCGAAUUGUCGGCGUAUGCCUCCAAA | < 1e-05 s⁻¹ | – | – | – | – |
| AUAAAAGCGCCAGAACUACAGAAAUGUAGUUGACGAGGAGGAGGUUUCUCGGAUUUUCGGCGGAUGCCUCCAAA | < 1e-05 s⁻¹ | < 1e-05 s⁻¹ | < 1e-05 s⁻¹ | – | – |
| AUAAAAGCGCCAGAACUACAGAAAUGUAGUUGACGAGGAGGAGGUUAAUCGAAUUUUCGGCUGAUGCCUCCAAA | < 1e-05 s⁻¹ | < 1e-05 s⁻¹ | < 1e-05 s⁻¹ | < 1e-05 s⁻¹ | < 1e-05 s⁻¹ |
| AUAAAAGCGCCAGAACUACAGAAAUGUAGUUGACGAGGAGGAGGUUGAUCGUAUUUUCGGCGGAUGCCGCCAAA | 4.05e-05 ± 1.5e-05 s⁻¹ | – | – | 3.79e-05 ± 1.3e-05 s⁻¹ | – |
| AUAAAAGCGCCAGAACUACAGAAAUGUAGUUGACGAGGAGGAGGUUCAUCGAAUUUUCGGCGGAUCUCUCCAAA | < 1e-05 s⁻¹ | – | – | – | – |

Reference: the supplement of paper PMC7125110
